In publication PMC7771244 one finds Kd, fold higher affinity than for H2A.Z II K7ac,K13ac and IC50 data, which are given here for eleven substances.

One may read the Kd as the constant that tells how readily two partners part at equilibrium. Read a low Kd as higher affinity. The IC50 is the concentration that inhibits the measured activity by half. A high value points to weaker potency.

Assay [1] concerns the target 5FW-BPTF (bromodomain of the bromodomain- and PHD finger-containing transcription factor, labelled with 5-fluorotryptophan) (human). The assay can be described thus: NMR titration.
For assay [2], the target named is 5FW-CECR2 (bromodomain of CECR2, labelled with 5-fluorotryptophan) (human). The experiment in a line: NMR titration.
The target of assay [3] is 5FW-labeled BRD4(2) (second bromodomain of BRD4) (human) (UniProt O60885). The experiment in a line: NMR titration.
In assay [4] the target is 5FW-labeled BRD2(2) (second bromodomain of BRD2) (human). The experiment in a line: NMR titration.
For assay [5], the target named is GST-BPTF (glutathione S-transferase-tagged BPTF, not labeled with fluorine) (human). The experiment in a line: SPR. (In SPR one partner is held on a chip, and binding of the other changes the refractive index at the surface.)
The target of assay [6] is His9-tagged BPTF bromodomain (human). The assay can be described thus: AlphaScreen or HTRF.

As to “H2A.Z II K4ac,K11ac N-terminal tail peptide”, the Kd in assay [1] was 760 µM. “H2A.Z II K7ac,K11ac N-terminal tail peptide” had a Kd in assay [1] of 780 µM. Regarding “H2A.Z II K4ac,K13ac N-terminal tail peptide”, the Kd in assay [1] amounted to 790 µM.

In assay [1], “H2A.Z I K4ac,K13ac N-terminal tail peptide” registered a Kd of 780 µM.

On to “H2A.Z I K7ac,K13ac N-terminal tail peptide”, for which the Kd in assay [2] is 130 µM; in assay [1], 520 µM; in assay [4] it was 680 µM. Besides, the fold higher affinity than for H2A.Z II K7ac,K13ac in assay [3] and in assay [4] was 2 fold each time. “H2A.Z II K4ac,K7ac N-terminal tail peptide”: the Kd in assay [1] was determined as 660 µM.

Turning to “H2A.Z II K7ac,K13ac N-terminal tail peptide”, the Kd in assay [5] is 195 µM; in assay [1] it was 310 µM. Besides, the IC50 in assay [6] worked out at 830 µM.

In assay [1], “H2A.Z II K4ac,K15ac N-terminal tail peptide” displayed a Kd of 430 µM.

For the substance “H2A.Z I K4ac,K15ac N-terminal tail peptide”, the Kd in assay [1] was found to be 630 µM. Same read-out and setting: as for “H2A.Z I K11ac,K13ac N-terminal tail peptide”, the figure is 1440 µM. Substance “H2A.Z II K11ac,K13ac N-terminal tail peptide” displayed a Kd in assay [1] of 790 µM.
